Assay results from paper PMC12340436.

Columns and labels:
Test in all cases: EMSA
[1] = tested on: RhsP2tox WT (Pseudomonas aeruginosa PA14)
[2] = target: RhsP2tox R1563E R1563E (Pseudomonas aeruginosa PA14) (UniProt A0A0H2Z8A2)
[3] = target: RhsP2tox WT (Pseudomonas aeruginosa PA14) (UniProt A0A0H2Z8A2)
[4] = target: RhsP2tox K1564E K1564E (Pseudomonas aeruginosa PA14) (UniProt A0A0H2Z8A2)
[5] = target: RhsP2tox K1567E K1567E (Pseudomonas aeruginosa PA14) (UniProt A0A0H2Z8A2)
[6] = target: RhsP2tox K1580E K1580E (Pseudomonas aeruginosa PA14) (UniProt A0A0H2Z8A2)
[7] = target: RhsP2tox K1574E K1574E (Pseudomonas aeruginosa PA14) (UniProt A0A0H2Z8A2)
[8] = target: RhsP2tox K1579E K1579E (Pseudomonas aeruginosa PA14) (UniProt A0A0H2Z8A2)

CsrB sRNA showed a Kd [1] of 0.67 µM.

With “GGGACCGGCGCAGAGGAGACAAUGCCGGAUUUAAGACGCGGAUGCACUGCUGUGUGUACUGUAGAGUCUGGCGGAUGUCGACAGACUCUAUUUUUUU [McaS sRNA]” the binding [2] was “binds more weakly”, the Kd [3] was 6.9 µM and the binding [4] was “binds more weakly”. For the same substance, the binding [5] was “binds more weakly”, the binding [6] was “binds more weakly” and the binding [7] was “no binding”. The binding [8] was “binds more weakly”.

With McaS sRNA the Kd [1] was 6.9 µM.

For synthetic 50-nt RNA, the Kd [1] was 2.2 µM.
